“And” between values parts separate entries of the source, which are not always exact repeats. Equal values may be shown once.
B1: Azurin, P00282 (parent)
chain: MLRKLAAVSLLSLLSAPLLAAECSVDIQGNDQMQFNTNAITVDKSCKQFTVNLSHPGNLPKNVMGHNWVLSTAADMQGVVTDGMASGLDKDYLKPDDSRVIAHTKLIGSGEKDSVTFDVSKLKEGEQYMFFCTFPGHSALMKGTLTLK

Variants of: B1
Conditions: Pseudomonas aeruginosa (strain ATCC 15692 / DSM 22644 / CIP 104116 / JCM 14847 / LMG 12228 / 1C / PRS 101 / PAO1); pH 7.5; 20 °C; GdnHCl; Fluorescence; Tris 30 mM; reversible: Yes; structure 5AZU; whole UniProt chain shown

| Variant | ddG of mutation (higher = less stable) | denaturant m value | denaturant midpoint (higher = more stable) | unfolding free energy |
| --- | --- | --- | --- | --- |
| MLRKLAAVSLLSLLSAPLLAAECSVDIQGNDQMQFNTNAITVDKSCKQFTVNLSHPGNLPKNVMGHNWVLSTAADMQGVVTDGMASGLDKDYLKPDDSRVIAHTKLIGSGEKDSVTFDVSKLKEGEQYMFFSTFPGHSALMKGTLTLK [C132S] | -1.57 kcal/mol and -2.09 kcal/mol and -0.96 kcal/mol | 5.21 kcal/mol/M and 5.82 kcal/mol/M and 4.73 kcal/mol/M | 2.09 M and 1.85 M and 2.17 M | 10.9 kcal/mol and 11.4 kcal/mol and 10.3 kcal/mol |

Same assay, conditions: Pseudomonas aeruginosa (strain ATCC 15692 / DSM 22644 / CIP 104116 / JCM 14847 / LMG 12228 / 1C / PRS 101 / PAO1); pH 7.5; -15 °C; GdnHCl; Fluorescence; Tris 30 mM; NaCl 5.0 M; reversible: Yes; structure 5AZU; whole UniProt chain shown

| Variant | denaturant m value | denaturant midpoint (higher = more stable) | unfolding free energy |
| --- | --- | --- | --- |
| MLRKLAAVSLLSLLSAPLLAAECSVDIQGNDQMQFNTNAITVDKSCKQFTVNLSHPGNLPKNVMGHNWVLSTAADMQGVVTDGMASGLDKDYLKPDDSRVIAHTKLIGSGEKDSVTFDVSKLKEGEQYMFFSTFPGHSALMKGTLTLK [C132S] | 6.69 kcal/mol/M and 6.81 kcal/mol/M and 5.02 kcal/mol/M | 1.35 M and 1.38 M and 1.4 M | 9.05 kcal/mol and 9.4 kcal/mol and 7.01 kcal/mol |
